Experiment [1] has as its target T1, aggregated synthetic Aβ1-42 (human, UniProt P05067 672-713).
T1 construct: domain: Aβ1-42; Synthetic peptide, aggregated, coated for ELISA; also called 凝集Aβ1−42; Aβ(1-42) aggregate
The experiment is described as follows: ELISA on aggregated synthetic Aβ1-42. A general note: In an ELISA, binding on a coated surface is turned into a signal by an enzyme label.

Experiment [2] concerns the target T1, aggregated synthetic Aβ1-42. The experiment is described as follows: ELISA on aggregated Aβ1-42, streptavidin-HRP as reporter; confirmed (sentence runs on into paragraph 399).
Experiment [3] has the same target. The experiment is described as follows: quantitative Aβ(1-42) aggregate binding assay, COS conditioned medium.

Residue numbers refer to the chain shown, from its start.

B1: murine monoclonal antibody 12A11 (isotype IgG1) (antibody, V domains shown)
VH: QVTLKESGPGILKPSQTLSLTCSFSGFSLSTSGMSVGWIRQPSGKGLEWLAHIWWDDDKYYNPSLKSRLTISKDTSRNQVFLKITSVDTADTATYYCARRTTTADYFAYWGQGTTLTVSS
VL: DVLMTQTPLSLPVSLGDQASISCRSSQSIVHSNGNTYLEWYLQKPGQSPKLLIYKVSNRFSGVPDRFSGSGSGTDFTLKISRVEAEDLGIYYCFQSSHVPLTFGAGTKLELK
notes: Mouse IgG1 from the hybridoma; also called mAb 12A11; m12A11
B1: the binding result in experiment [1] is given as “binds”.

B2: recombinant mouse 12A11 Cγ2a (isotype-switched 12A11) (antibody, V domains shown)
VH: B1 VH
VL: B1 VL
modifications: biotin conjugated (in the ELISA and the competition assay)
notes: also called m12A11Cγ2a; biotin-conjugated m12A11Cγ2a
As for B2, the binding result in experiment [2] is given as “binds”.

B3: humanized 12A11 antibody, version 6.1 (antibody, V domains shown)
VH: QVQLVESGGGVVQPGRSLRLSCAFSGFTLSTSGMSVGWIRQAPGKGLEWVAHIWWDDDKYYNPSLKSRFTISKDTSKNTVYLQMNSLRAEDTAVYYCARRTTTADYFAYWGQGTTVTVSS
VL: DVVMTQSPLSLPVTPGEPASISCRSSQSIVHSNGNTYLEWYLQKPGQSPQLLIYKVSNRFSGVPDRFSGSGSGTDFTLKISRVEAEDVGVYYCFQSSHVPLTFGQGTKLEIK
notes: Variable regions only; also called h12A11v6.1; バージョン6.1
Consider B3, for which the binding result in experiment [3] is “binds”.

B4: humanized 12A11 antibody, version 5.3 (antibody, V domains shown)
VH: B3 VH with V50L, F69L, V80L
VL: B3 VL
notes: Variable regions only; also called h12A11v5.3; バージョン5.3
On to B4, for which the binding result in experiment [3] is “binds”.

B5: humanized 12A11 antibody, version 5.4 (antibody, V domains shown)
VH: B3 VH with T28S
VL: B3 VL
notes: Variable regions only; also called h12A11v5.4; バージョン5.4
For the molecule B5, in experiment [3], the binding result is “binds”.

B6: humanized 12A11 antibody, version 5.6 (antibody, V domains shown)
VH: B3 VH with T28S, V50L, V80L
VL: B3 VL
notes: Variable regions only; also called h12A11v5.6; バージョン5.6
Turning to B6, in experiment [3], the binding result is on record as “binds”.

B7: humanized 12A11 antibody, version 3 (antibody, V domains shown)
VH: B3 VH with K73R, T75N, V80L
VL: B3 VL
notes: Variable regions only; tested in conditioned medium of COS cells; also called h12A11v3; v3
As for B7, the binding result in experiment [3] is recorded as “binds”.

B8: humanized 12A11 antibody, version 6.2 (antibody, V domains shown)
VH: B3 VH with F69L, V80L
VL: B3 VL
notes: Variable regions only; also called h12A11v6.2; バージョン6.2
For the molecule B8, the binding result in experiment [3] is “binds”.

B9: humanized 12A11 antibody, version 5.1 (antibody, V domains shown)
VH: B3 VH with F69L
VL: B3 VL
notes: Variable regions only; also called h12A11v5.1; バージョン5.1
For B9, the binding result in experiment [3] is reported as “binds”.

B10: humanized 12A11 antibody, version 5.5 (antibody, V domains shown)
VH: B3 VH with T28S, F69L, V80L
VL: B3 VL
notes: Variable regions only; also called h12A11v5.5; バージョン5.5
As for B10, the binding result in experiment [3] is recorded as “binds”.

B11: humanized 12A11 antibody, version 2.1 (antibody, V domains shown)
VH: B3 VH with T75N, V80L
VL: B3 VL
notes: Variable regions only; tested in conditioned medium of COS cells; also called h12A11v2.1; v2.1
As to B11, the binding result in experiment [3] is listed as “binds”.

B12: humanized 12A11 antibody, version 5.2 (antibody, V domains shown)
VH: B3 VH with V50L
VL: B3 VL
notes: Variable regions only; also called h12A11v5.2; バージョン5.2
With B12, the binding result in experiment [3] is “binds”.

B13: humanized 12A11 antibody, version 6.4 (antibody, V domains shown)
VH: B3 VH with T28S, V80L
VL: B3 VL
notes: Variable regions only; also called h12A11v6.4; バージョン6.4
As to B13, in experiment [3], the binding result was “binds”.

B14: humanized 12A11 antibody, version 6.3 (antibody, V domains shown)
VH: B3 VH with V50L, V80L
VL: B3 VL
notes: Variable regions only; also called h12A11v6.3; バージョン6.3
Take B14: the binding result in experiment [3] was “binds”.

(Values after JP2012050437A (dated 2012).)
